We go through three substances from paper PMC4794849.

Holding throughout (test): filter binding
Common to all, as to details: Filter binding: 20 mM HEPES-KOH pH 7.5, 1 mM MgCl2, 10 µM TCEP, 5 mM β-mercaptoethanol, 10 µM ZnCl2, 50-500 mM NaCl, 0.2 nM RNA, 25 min, room temperature. …

Data set [1] deals with HIV-2 NC (NCp8) (HIV-2 isolate ROD).
Data set [2] relates to HIV-2 GagΔp6 (HIV-2 isolate ROD).
Data set [3] has as its system HIV-2 MA (HIV-2 isolate ROD).

For orientation: Kd means the concentration at which binding is half-saturated. For HIV-2 Ψ RNA, the dissociation constant Kd in data set [1] was found to be 979 nM; in data set [2] it was 125 nM; in data set [3], 1510 nM.

For the substance HIV-2 PBS RNA, the results for the Kd in data set [1], in data set [2] and in data set [3] were 2040 nM, 314 nM and 2070 nM, respectively.

Turning to HIV-2 TARpA RNA, the Kd in data set [1] amounted to 1430 nM; in data set [2], 965 nM; in data set [3] it was 2380 nM.
